Test results as given in paper PMC6114900, “Molecular basis for CesT recognition of type III secretion effectors in enteropathogenic Escherichia coli” (PLoS Pathogens, 2018).

B1: His6-Tir^490-550 (domain or fragment)
chain: SGSGPVTGRLIGTPGQGIQSTYALLANSGGLRLGMGGLTSGGESAVSSVNAAPTPGPVRFV
notes: also called C-terminal Tir peptide; not shown: His6, N-terminal, kept
B2: His6-Tir^23-80 (domain or fragment)
chain: PSQTDGAARGGTGHLISSTGALGSRSLFSPLRNSMADSVDSRDIPGLPTNPSRLAAAT
notes: not shown: His6, N-terminal, kept

What was measured:
[1] = target: T1, CesT (no tag, co-expressed and co-purified with His6-Tir constructs) (enteropathogenic Escherichia coli (EPEC), UniProt P21244 1-156); experiment: SEC; details: both partners purified
T1 construct: also called full-length CesT

[2] = target: T2, CesT^138 (no tag, co-expressed and co-purified with His6-Tir peptides) (enteropathogenic Escherichia coli (EPEC), UniProt P21244 2-138); experiment: pull-down; details: partners not purified
T2 construct: also called CesT^2-138
T2 sequence (P21244 2-138): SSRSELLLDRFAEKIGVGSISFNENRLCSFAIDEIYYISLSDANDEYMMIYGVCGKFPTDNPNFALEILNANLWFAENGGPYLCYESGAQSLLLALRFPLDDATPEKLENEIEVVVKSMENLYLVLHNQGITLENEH

T1 sequence (P21244 whole entry): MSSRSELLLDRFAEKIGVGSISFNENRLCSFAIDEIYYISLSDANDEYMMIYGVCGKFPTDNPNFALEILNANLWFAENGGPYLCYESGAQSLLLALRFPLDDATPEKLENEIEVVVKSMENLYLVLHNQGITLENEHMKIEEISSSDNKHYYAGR

Binder | binding result [1] | binding result [2]
GGTGHLISSTGALGSRSLFSPLRNSMADSVDSRDIPGLPTNPSRLAAAT (domain or fragment, not shown: His6, N-terminal, kept) [His6-Tir^32-80] | binds | binds
B1 | binds | 
B2 | binds | 
GHLISSTGALGSRSLFSPLRNSMADSVDSRDIPGLPTNPSRLA (domain or fragment, not shown: His6, N-terminal, kept) [His6-Tir^35-77] | binds | 
